Laboratory results as given in PMC2661964, “Mammalian Kinesin-3 Motors Are Dimeric In Vivo and Move by Processive Motility upon Release of Autoinhibition” (PLoS Biology, 2009).

How the values were obtained:
[1] = target: mCit-KHC; experiment: FRET or BRET; FRET stoichiometry (average FRET efficiency, E AVE) in live COS cells coexpressing mCit- and mCFP-tagged motors; Kinesin-1 with HA-KLC coexpressed
[2] = target: KHC(1–891)-3xmCit; experiment: stepwise photobleaching of single molecules (TIRF microscopy); lysates of COS cells expressing 3xmCit-tagged constructs, in flow chambers with Cy5-microtubules, with AMPPNP; number of bleaching steps of 160–200 spots for each construct

| average FRET efficiency (E AVE), motor-to-motor [1] [%] | stoichiometry N [2] | Substance |
| --- | --- | --- |
| 2.1 | – | mCFP-KHC (natural protein) |
| – | 2 | KHC(1–891)-3xmCit (domain or fragment) |
